Experimental data as given in patent US20210030857A1 (NGM BIOPHARMACEUTICALS, published 2021).
Numbering of substitutions follows the chain as printed.

T1: human beta klotho expressed on cells (human, UniProt Q86Z14 1-1044)
T1 construct: also called HuKLB overexpressing cells; Human KLB
T1 sequence: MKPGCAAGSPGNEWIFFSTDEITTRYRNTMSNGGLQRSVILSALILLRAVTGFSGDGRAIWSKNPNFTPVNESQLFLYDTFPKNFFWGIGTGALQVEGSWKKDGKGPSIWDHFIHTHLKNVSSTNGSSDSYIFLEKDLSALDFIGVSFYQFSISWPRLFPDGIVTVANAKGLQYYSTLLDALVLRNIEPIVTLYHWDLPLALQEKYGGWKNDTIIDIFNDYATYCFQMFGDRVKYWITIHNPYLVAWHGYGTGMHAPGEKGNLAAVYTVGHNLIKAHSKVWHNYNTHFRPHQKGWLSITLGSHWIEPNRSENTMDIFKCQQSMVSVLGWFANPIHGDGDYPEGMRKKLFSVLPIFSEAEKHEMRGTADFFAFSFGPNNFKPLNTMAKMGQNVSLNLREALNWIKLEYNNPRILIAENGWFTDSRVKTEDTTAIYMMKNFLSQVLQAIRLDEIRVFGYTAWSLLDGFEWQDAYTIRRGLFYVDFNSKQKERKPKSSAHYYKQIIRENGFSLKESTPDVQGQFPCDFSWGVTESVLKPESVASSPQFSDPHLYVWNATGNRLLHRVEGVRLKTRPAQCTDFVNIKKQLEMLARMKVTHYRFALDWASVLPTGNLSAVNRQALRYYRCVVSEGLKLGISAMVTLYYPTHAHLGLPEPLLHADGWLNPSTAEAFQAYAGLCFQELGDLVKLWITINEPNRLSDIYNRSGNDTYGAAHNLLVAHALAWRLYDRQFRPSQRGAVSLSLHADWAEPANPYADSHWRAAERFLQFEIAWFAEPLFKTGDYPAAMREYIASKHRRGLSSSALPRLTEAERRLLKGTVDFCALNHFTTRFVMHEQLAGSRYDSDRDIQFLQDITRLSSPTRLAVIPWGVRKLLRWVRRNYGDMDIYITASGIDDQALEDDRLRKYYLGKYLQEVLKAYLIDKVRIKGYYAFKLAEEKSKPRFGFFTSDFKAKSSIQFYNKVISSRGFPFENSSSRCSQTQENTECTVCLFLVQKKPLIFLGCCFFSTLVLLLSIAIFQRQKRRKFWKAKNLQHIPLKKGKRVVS

B1: humanized 5H23 antibody (VH SEQ ID NO: 271 and VL SEQ ID NO: 276) (antibody, V domains shown)
VH: QVQLQQSGAEVKKPGASVKVSCKASGYTFTSYDINWVRQAPGQGLEWIGWIYPGDGSTKYNEKFKGKATITRDTSASTAYMELSSLRSEDTAVYFCARSDYYGSRSFAYWGQGTLVTVSS
VL: DIVMTQSPDSLAVSLGERATINCRASKSVSTSGYVYMHWYQQKPGQPPKLLIYLASYLESGVPDRFSGSGSGTDFTLTISSVQAEDVAVYYCQHSRDLTFPFGGGTKLEIK
notes: also called h5H23; h5H23 (Prep 1)
B2: antibody 3N20 (antibody, V domains shown)
VH: QVQLQESGAELARPGASVKLSCKVSGYIFTNYGISWVKQRTGQGLEWIGEIYPRSGNTYYNEKFKGKATLTADMSSSTAYMDLRSLTSEDSAVYFCARHWDGVLDYFDYWGQGTSLTVSS
VL: DIVMTQSPSSLSVSAGEKVTMSCKSSQSLLNSGNQKNYLAWYQQKPGQPPKLLIYGASTRESGVPDRFTGSGSGTDFTLTISSVQAEDLAVYYCLNDHSYPFTFGAGTKLELK
notes: Murine monoclonal antibody
B3: antibody 5F7 (antibody, V domains shown)
VH: QVQPQESGPELVKPGALVKISCKASGYTFTRYDINWVKQRPGQGLEWIGWIYPGDISTKYNEKFKGKATLTADKSSSTAYMQLNSLTSENSAVYFCARSDYYGSRSFVYWGQGTLVTVSA
VL: DIVLTQSPASLAVSLGQRATISCRASKSVSTSGYSYMHWYQQKPGQPPKLLIYLASNLESGVPARFSGSGSGTDFTLNIHPVEEEDAATYYCQHSRELPYTFGGGTKVEIK
notes: Murine monoclonal antibody
B4: antibody 5H23 (antibody, V domains shown)
VH: B3 VH with P4L, E6Q, R31S, I56G, S77R, N84S, V108A
VL: B3 VL with S35V, Y40N, N57Y, T89I, E97D, P99T, Y100F, T101P, V108L
notes: Murine monoclonal antibody from hybridoma; also called 5H23-Alexa647 (labelled form)
B5: antibody 5C23 (antibody, V domains shown)
VH: B3 VH with Q39K, I56G, K65E, N84S
VL: B3 VL with A9D, A12T, V108L
notes: Murine monoclonal antibody
B6: antibody 1D19 (antibody, V domains shown)
VH: B3 VH with V37M, I56S, Y60F, K63N, G66D, N84S, A92T, V108T
VL: B3 VL with V108L
notes: Murine monoclonal antibody
B7: antibody 4P5 (antibody, V domains shown)
VH: B3 VH with P4L, E6Q, Q39K, I56D, N84S
VL: B3 VL with V3L, S69R, Q93H, R96G, V108L
notes: Murine monoclonal antibody
B8: antibody 3L3 (antibody, V domains shown)
VH: B3 VH with A16T, R31S, I56G, T58P, N61D, N84S
VL: B3 VL with M37V, S69R, R96G, V108L
notes: Murine monoclonal antibody
B9: antibody 2L12 (antibody, V domains shown)
VH: B3 VH with P4L, E6Q, Q39K, I56D, N84S
VL: B3 VL with A12P, M37L, R96G, V108L
notes: Murine monoclonal antibody
B10: antibody 1C17 (antibody, V domains shown)
VH: QVQLQESGPGLVKPSQSLSLTCSVTGYSITSGYYWNWIRQFPGNKLEWMGYINYDGNSNYTPSLKNRISITRDTSKNQFFLKLNSVTPEDTATYYCARKGAYYSNYDSFDVWGTGTTVTVSS
VL: DIKMTQSPSSMYASLGERVTITCKASQDINSYLSWVQQKPGKSPKTLIYRANRLVDGVPSRFSGSGSGQDYSLTISSLEYEDMGIYYCLQYDEFPFTFGSGTKLEIK
notes: Murine monoclonal antibody
B11: negative control antibody, anti-keyhole limpet hemocyanin (KLH) antibody (antibody, human IgG1, kappa, V domains shown)
VH: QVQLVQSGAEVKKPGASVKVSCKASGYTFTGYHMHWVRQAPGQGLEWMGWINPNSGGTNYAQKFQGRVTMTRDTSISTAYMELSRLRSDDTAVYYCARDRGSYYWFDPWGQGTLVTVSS
VL: DIQMTQSPSSLSASVGDRVTITCRASQGIRNDLGWYQQKPGKAPKRLIYAASSLQSGVPSRFSGSGSGTEFTLTISSLQPEDFATYYCLQHNSYPLTFGGGTKVEIKR
notes: also called Neg; Control; anti-KLH antibody

Columns and labels:
[1] = target: T2, mouse-human KLB chimeric protein (mouse KLB (M1-F506)-human KLB (S509-S1044)) on cells (mouse/human chimera, UniProt Q86Z14 1-1044 (human entry)); test: FACS on transfected Expi293 cells, antibody 1 µg/ml, labelled anti-human Fc
T2 construct: also called Mouse-Human chimeric KLB; chMoHu
Protocol: (§1) Studies were performed in order to localize the binding site on human KLB of anti-beta klotho antibodies in the 5H23 epitope bin, including 5H23 as described in Example 3, with sequences shown in Tables 1-10 and FIGS. 1-3, and human anti-beta klotho antibodies in the 5H23 epitope bin, such as humanized 5H23 antibodies (e.g., VH SEQ ID NO: 271 and VL SEQ ID NO: 276). For example, FACS-based binding assays for domain mapping were performed on Expi293 cells (Life Technologies, A14635) that were transiently transfected with plasmids encoding variants of KLB: human, mouse, cynomolgus, a chimeric version in which the KL1 domain sequence of mouse KLB (M1-F506) replaces the KL1 domain of human KLB (M1-F508) to create mouse-human KLB (SEQ ID NO: 376), and a second chimera in which the human KL1 sequence (M1-F508) replaces the KL1 domain of mouse KLB (M1-F506) to create human-mouse KLB (SEQ ID NO: 374). Additionally, the expression vector pYD7 harboring no KLB sequence was transfected as a negative control.
(§2) In some studies, binding of a purified sample of a humanized 5H23 antibody (e.g., VH SEQ ID NO: 271 and VL SEQ ID NO: 276) to KLB variants was determined by FACS analysis. […] After washing with PBS/1% BSA/0.1% azide, transfected cells were then co-incubated with labeled anti-human Fc (Jackson lmmunoresearch) for 30 minutes at 4° C. After washing with PBS/1% BSA/0.1% azide, cells were acquired on flow cytometer (FACS Calibur) and analyzed by cytometric software (FlowJo). To display the resulting data, graphs plotting the number of cells as a function of fluorescence intensity were generated, and the median fluorescence intensity (MFI) was determined for each sample as shown in Table 30.

[2] = target: T3, human-mouse KLB chimeric protein (human KLB (M1-F508)-mouse KLB (P507-S1043)) on cells (human/mouse chimera, UniProt Q99N32 1-1043 (mouse entry)); test: as above
T3 construct: also called Human-Mouse chimeric KLB; chHuMo
Protocol: as §1, §2

[3] = target: T1, human beta klotho expressed on cells; test: FACS competition on HuKLB-overexpressing cells; row antibody unlabelled; competitor 3I13-Alexa488 (labelled, EC10); MFI of the label
Protocol: (§3) For example, for competition binding assays by FACS analysis, antibody standards were prepared that were conjugated to a fluorochrome using either A488 or A647 antibody labeling kit (Invitrogen) following manufacturer's instructions. A dose titration of the conjugated antibody standard was evaluated using HuKLB overexpressing cells. The plateau of the maximal signal of antibody binding is EC=100 and the background signal is EC=0. Competition by FACS against the fluorochrome labeled antibody was performed by pre-incubating HuKLB overexpressing cells with hybridoma supernatants for 15 minutes at room temperature. Without washing, an EC=10 concentration of A488 or A647 labelled antibody standard was added. EC=10 for an individual antibody was determined by 10% of signal using the maximum signal as (100%) and background signal as (0%). After 30 minutes at 4° C., cells are washed and analyzed by FACS. […] A partial competing antibody is one sample that show signal between labelled antibody alone and background. Antibodies that show complete competition against the same standard antibody are considered to be in the same bin.
(§4) Representative results are shown in Table 12 below reported as mean fluorescence intensity (MFI).

[4] = target: T1, human beta klotho expressed on cells; test: FACS competition on HuKLB-overexpressing cells; row antibody unlabelled; competitor 5H23-Alexa647 (labelled, EC10); MFI of the label
Protocol: as §3, §4

[5] = target: human beta klotho / human FGFR1c receptor complex on cells (human, UniProt Q86Z14 1-1044; P11362 22-822); test: cell-based or functional assay
human beta klotho / human FGFR1c receptor complex on cells, sequence (P11362 22-822 limits assumed, one chain of several): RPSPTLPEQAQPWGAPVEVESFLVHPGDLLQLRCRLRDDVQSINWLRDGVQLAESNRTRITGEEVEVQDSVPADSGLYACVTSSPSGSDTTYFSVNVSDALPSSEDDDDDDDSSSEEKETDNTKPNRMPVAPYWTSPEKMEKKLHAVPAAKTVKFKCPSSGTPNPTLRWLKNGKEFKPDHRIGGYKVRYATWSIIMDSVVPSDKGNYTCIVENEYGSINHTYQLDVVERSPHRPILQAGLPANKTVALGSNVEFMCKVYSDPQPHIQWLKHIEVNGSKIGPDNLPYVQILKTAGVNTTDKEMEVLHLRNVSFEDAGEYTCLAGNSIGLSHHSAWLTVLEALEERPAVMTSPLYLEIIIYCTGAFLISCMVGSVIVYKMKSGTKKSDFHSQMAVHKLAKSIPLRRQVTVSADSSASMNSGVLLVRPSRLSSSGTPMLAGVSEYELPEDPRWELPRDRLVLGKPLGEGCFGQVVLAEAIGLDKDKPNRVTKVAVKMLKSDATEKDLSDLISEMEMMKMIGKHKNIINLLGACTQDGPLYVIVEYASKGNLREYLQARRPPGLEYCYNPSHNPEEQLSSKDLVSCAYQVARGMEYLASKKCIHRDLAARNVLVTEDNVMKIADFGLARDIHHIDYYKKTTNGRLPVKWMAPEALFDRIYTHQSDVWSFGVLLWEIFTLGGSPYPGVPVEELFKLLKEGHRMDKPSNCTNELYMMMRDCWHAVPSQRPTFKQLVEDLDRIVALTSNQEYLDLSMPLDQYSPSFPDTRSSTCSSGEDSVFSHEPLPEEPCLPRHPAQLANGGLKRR

[6] = target: human beta klotho / human FGFR3c on L6 cells (human, UniProt Q86Z14 1-1044; P22607 23-806); test: cell-based or functional assay
human beta klotho / human FGFR3c on L6 cells, sequence (P22607 23-806, one chain of several): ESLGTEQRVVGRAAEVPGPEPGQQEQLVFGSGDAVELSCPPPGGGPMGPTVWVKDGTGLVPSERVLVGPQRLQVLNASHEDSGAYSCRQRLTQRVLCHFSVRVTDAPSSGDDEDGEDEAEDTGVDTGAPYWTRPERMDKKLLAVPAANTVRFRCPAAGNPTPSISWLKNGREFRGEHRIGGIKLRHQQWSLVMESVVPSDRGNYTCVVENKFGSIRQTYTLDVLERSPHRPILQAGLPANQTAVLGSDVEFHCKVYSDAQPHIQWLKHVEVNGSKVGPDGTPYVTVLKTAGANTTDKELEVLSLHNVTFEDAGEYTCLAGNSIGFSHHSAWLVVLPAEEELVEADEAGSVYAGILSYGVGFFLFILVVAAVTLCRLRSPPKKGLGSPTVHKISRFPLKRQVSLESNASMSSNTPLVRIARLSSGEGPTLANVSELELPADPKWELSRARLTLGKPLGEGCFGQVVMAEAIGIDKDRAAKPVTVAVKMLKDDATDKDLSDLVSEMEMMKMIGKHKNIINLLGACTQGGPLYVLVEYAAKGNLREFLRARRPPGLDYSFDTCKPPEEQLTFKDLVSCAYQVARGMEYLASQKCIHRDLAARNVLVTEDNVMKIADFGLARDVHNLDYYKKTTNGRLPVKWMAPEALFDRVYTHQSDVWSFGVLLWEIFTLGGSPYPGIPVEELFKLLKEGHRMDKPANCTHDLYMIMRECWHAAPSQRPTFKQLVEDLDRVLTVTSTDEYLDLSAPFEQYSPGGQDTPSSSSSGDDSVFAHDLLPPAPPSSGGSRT

[7] = target: human beta klotho / human FGFR4 on L6 cells (human, UniProt Q86Z14 1-1044; P22455 22-802); test: cell-based or functional assay
human beta klotho / human FGFR4 on L6 cells, sequence (P22455 22-802, one chain of several): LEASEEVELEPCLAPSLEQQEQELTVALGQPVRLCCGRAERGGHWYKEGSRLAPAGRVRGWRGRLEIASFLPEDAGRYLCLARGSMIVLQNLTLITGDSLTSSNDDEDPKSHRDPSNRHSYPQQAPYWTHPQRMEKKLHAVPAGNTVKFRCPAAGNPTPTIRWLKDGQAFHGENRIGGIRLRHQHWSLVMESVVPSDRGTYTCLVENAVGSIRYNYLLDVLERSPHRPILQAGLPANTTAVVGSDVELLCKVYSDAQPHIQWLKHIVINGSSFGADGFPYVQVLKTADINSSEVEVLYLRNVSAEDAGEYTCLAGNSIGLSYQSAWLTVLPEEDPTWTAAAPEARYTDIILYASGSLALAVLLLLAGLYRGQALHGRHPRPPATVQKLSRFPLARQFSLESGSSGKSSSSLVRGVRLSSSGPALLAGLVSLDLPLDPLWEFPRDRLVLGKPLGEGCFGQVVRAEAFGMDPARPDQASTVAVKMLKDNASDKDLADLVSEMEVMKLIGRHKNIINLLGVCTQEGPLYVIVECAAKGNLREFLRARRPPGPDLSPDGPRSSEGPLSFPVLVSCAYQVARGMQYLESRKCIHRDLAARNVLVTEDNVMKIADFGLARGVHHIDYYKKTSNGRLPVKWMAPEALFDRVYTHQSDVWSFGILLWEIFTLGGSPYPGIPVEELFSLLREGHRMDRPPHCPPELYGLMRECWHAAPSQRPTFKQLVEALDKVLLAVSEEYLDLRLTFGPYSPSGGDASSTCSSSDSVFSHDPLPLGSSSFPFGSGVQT

Row | Binder | Mean Fluorescence intensity [1] | Mean Fluorescence intensity [2] | Mean Florescence Intensity (MFI) [3] | Mean Florescence Intensity (MFI) [4] | L6 huKLB/R1c reporter assay EC50 [5] | L6 huKLB/R3c reporter assay EC50 [6] | L6 huKLB/R4 reporter assay EC50 [7]
1 | B1 | 26.1 MFI | 9.29 MFI | – | – | – | – | –
2 | B2 | – | – | 30.5 MFI | 2.4 MFI | – | – | –
3 | B3 | – | – | 28.5 MFI | 2.3 MFI | – | – | –
4 | B4 | – | – | 29.8 MFI | 2.3 MFI | 0.28 nM | > 67 nM | > 67 nM
5 | B5 | – | – | 29.3 MFI | 2.4 MFI | – | – | –
6 | B6 | – | – | 30.6 MFI | 2.5 MFI | – | – | –
7 | B7 | – | – | 30.1 MFI | 2.4 MFI | 0.39 nM | > 67 nM | > 67 nM
8 | B8 | – | – | 28.7 MFI | 4.2 MFI | – | – | –
9 | B9 | – | – | 30.9 MFI | 3.1 MFI | 4.65 nM | > 67 nM | > 67 nM
10 | B10 | – | – | 26.7 MFI | 2.4 MFI | – | – | –
11 | B11 | 5.44 MFI | 6.01 MFI | – | – | – | – | –
